# Measured values from IntAct's records for PubMed 25231868.
# B1: DNA endonuclease SAE2 (Saccharomyces cerevisiae), P46946 (parent)
# chain: MVTGEENVYLKSSLSILKELSLDELLNVQYDVTTLIAKRVQALQNRNKCVLEEPNSKLAEILCHEKNAPQQSSQTSAGPGEQDSEDFILTQFDEDIKKESAEVHYRNENKHTVQLPLVTMPPNRHKRKISEFSSPLNGLNNLSDLEDCSDTVIHEKDNDKENKTRKLLGIELENPESTSPNLYKNVKDNFLFDFNTNPLTKRAWILEDFRPNEDIAPVKRGRRKLERFYAQVGKPEDSKHRSLSVVIESQNSDYEFAFDNLRNRSKSPPGFGRLDFPSTQEGNEDKKKSQEIIRRKTKYRFLMASNNKIPPYEREYVFKREQLNQIVDDGCFFWSDKLLQIYARC
# partner: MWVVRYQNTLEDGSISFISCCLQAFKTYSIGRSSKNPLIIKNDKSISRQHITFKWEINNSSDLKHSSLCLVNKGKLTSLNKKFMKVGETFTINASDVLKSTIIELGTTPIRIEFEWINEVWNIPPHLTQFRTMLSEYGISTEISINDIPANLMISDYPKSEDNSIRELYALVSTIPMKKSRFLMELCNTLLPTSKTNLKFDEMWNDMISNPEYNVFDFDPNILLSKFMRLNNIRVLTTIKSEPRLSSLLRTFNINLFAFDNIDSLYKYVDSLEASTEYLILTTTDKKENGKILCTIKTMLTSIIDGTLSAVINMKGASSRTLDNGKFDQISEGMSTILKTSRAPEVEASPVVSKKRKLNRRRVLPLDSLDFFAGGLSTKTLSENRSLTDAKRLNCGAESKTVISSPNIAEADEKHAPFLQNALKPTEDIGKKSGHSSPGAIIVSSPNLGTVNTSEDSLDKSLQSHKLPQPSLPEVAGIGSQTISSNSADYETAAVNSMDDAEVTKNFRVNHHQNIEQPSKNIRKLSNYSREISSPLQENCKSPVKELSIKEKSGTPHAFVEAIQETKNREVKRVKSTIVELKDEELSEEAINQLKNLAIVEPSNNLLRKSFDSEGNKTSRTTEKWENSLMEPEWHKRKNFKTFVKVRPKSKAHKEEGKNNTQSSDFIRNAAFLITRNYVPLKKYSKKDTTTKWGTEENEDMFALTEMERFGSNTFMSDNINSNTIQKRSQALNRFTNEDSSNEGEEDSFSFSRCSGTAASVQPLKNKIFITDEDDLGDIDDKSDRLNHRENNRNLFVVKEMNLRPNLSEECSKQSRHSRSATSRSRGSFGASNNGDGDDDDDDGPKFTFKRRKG
# Variants of: B1
# Details: with xrs2_yeast XRS2, P33301
row,Variant,effect of a mutation on the interaction
1,MVTGEENVYLKSSLSILKELSLDELLNVQYDVTTLIAKRVQALQNRNKCVLEEPNSKLAEILCHEKNAPQQSSQTSAGPGEQDSEDFILTQFDEDIKKESAEVHYRNENKHTVQLPLVTMPPNRHKRKISEFSSPLNGLNNLSDLEDCSDTVIHEKDNDKENKTRKLLGIELENPESTSPNLYKNVKDNFLFDFNTNPLTKRAWILEDFRPNEDIAPVKRGRRKLERFYAQVGKPEDSKHRSLSVVIESQNSDYEFAFDNLRNRSKSPPDFGRLDFPSTQEGNEDKKKSQEIIRRKTKYRFLMASNNKIPPYEREYVFKREQLNQIVDDGCFFWSDKLLQIYARC [G270D],decreasing interaction strength
2,MVTGEENVYLKSSLSILKELSLDELLNVQYDVTTLIAKRVQALQNRNKCVLEEPNSKLAEILCHEKNAPQQSSQTSAGPGEQDSEDFILTQFDEDIKKESAEVHYRNENKHTVQLPLVTMPPNRHKRKISEFSSPLNGLNNLSDLEDCSDTVIHEKDNDKENKTRKLLGIELENPESTSPNLYKNVKDNFLFDFNTNPLTKRAWILEDFRPNEDIAPVKRGRRKLERFYAQVGKPEDSKHRSLSVVIESQNSDYEFAFDNLRNRSKAAPGFGRLDFPSTQEGNEDKKKSQEIIRRKTKYRFLMASNNKIPPYEREYVFKREQLNQIVDDGCFFWSDKLLQIYARC [S267A;P268A],disrupting interaction strength
3,MVTGEENVYLKSSLSILKELSLDELLNVQYDVTTLIAKRVQALQNRNKCVLEEPNSKLAEILCHEKNAPQQSSQTSAGPGEQDSEDFILTQFDEDIKKESAEVHYRNENKHTVQLPLVTMPPNRHKRKISEFSSPLNGLNNLSDLEDCSDTVIHEKDNDKENKTRKLLGIELENPESTSPNLYKNVKDNFLFDFNTNPLTKRAWILEDFRPNEDIAPVKRGRRKLERFYAQVGKPEDSKHRSLSVVIESQNSDYEFAFDNLRNRSKSPPGFGRLDFAAAQEGNEDKKKSQEIIRRKTKYRFLMASNNKIPPYEREYVFKREQLNQIVDDGCFFWSDKLLQIYARC [P277A;S278A;T279A],decreasing interaction strength
